T1: β-catenin (UniProt P35222 1-781, limits assumed)
T1 construct: also called beta-catenin
T1 sequence (looked up): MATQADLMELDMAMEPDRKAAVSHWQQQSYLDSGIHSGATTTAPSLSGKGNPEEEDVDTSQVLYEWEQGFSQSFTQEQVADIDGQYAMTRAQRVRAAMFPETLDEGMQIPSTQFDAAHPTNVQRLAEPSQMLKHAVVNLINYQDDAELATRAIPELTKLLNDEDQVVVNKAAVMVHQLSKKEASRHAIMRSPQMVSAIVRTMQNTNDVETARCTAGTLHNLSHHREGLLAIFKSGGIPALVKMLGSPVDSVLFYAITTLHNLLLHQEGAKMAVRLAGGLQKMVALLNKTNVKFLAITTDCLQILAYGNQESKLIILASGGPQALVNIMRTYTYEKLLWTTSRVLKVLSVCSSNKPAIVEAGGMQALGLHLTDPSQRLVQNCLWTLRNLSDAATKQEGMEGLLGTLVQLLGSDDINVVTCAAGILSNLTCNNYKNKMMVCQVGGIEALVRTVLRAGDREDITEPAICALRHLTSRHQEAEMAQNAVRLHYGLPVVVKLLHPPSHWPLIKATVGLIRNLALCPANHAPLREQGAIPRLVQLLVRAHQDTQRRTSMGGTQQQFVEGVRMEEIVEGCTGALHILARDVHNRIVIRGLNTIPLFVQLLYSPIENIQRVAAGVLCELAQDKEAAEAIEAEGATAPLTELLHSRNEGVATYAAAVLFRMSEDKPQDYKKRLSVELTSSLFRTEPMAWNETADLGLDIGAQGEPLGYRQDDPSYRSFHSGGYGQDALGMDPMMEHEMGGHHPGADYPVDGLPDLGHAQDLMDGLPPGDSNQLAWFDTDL

B1: SEQ ID NO: 141 (peptide)
peptide: {4‑(trifluoromethyl)benzoic acid}-L[NMeQ]TLR[S5]IQR[S5][Cba][2Nal]-NH2
modifications: staple 6-10; not fully specified
notes: the footnote mark in T0158 is printed 19, seemingly for 10
B2: SEQ ID NO: 21 (peptide)
peptide: Ac-AQTAR[S5]IQR[S5]L[2Nal]-NH2
modifications: staple 6-10
SMILES: CC[C@H](C)[C@@H]1NC(=O)[C@@](C)(NC(=O)[C@H](CCCNC(=N)N)NC(=O)[C@H](C)NC(=O)[C@@H](NC(=O)[C@H](CCC(N)=O)NC(=O)[C@H](C)NC(C)=O)[C@@H](C)O)CCCC=CCCC[C@@](C)(C(=O)N[C@@H](CC(C)C)C(=O)N[C@@H](Cc2ccc3ccccc3c2)C(N)=O)NC(=O)[C@H](CCCNC(=N)N)NC(=O)[C@H](CCC(N)=O)NC1=O
B3: SEQ ID NO: 217 (peptide)
peptide: Ac-[NMeC]RQRSLQTLR[S5]IQR[S5][Cha][2Nal]-NH2
modifications: staple 11-15
SMILES: CC[C@H](C)[C@@H]1NC(=O)[C@@](C)(NC(=O)[C@H](CCCNC(=N)N)NC(=O)[C@H](CC(C)C)NC(=O)[C@@H](NC(=O)[C@H](CCC(N)=O)NC(=O)[C@H](CC(C)C)NC(=O)[C@H](CO)NC(=O)[C@H](CCCNC(=N)N)NC(=O)[C@H](CCC(N)=O)NC(=O)[C@H](CCCNC(=N)N)NC(=O)[C@H](CS)N(C)C(C)=O)[C@@H](C)O)CCCC=CCCC[C@@](C)(C(=O)N[C@@H](CC2CCCCC2)C(=O)N[C@@H](Cc2ccc3ccccc3c2)C(N)=O)NC(=O)[C@H](CCCNC(=N)N)NC(=O)[C@H](CCC(N)=O)NC1=O
B4: SEQ ID NO: 196 (peptide)
peptide: Ac-HRQRSLQTLR[S5]IQR[S5][Phe(4-Cl)][2Nal]-NH2
modifications: staple 11-15
SMILES: CC[C@H](C)[C@@H]1NC(=O)[C@@](C)(NC(=O)[C@H](CCCNC(=N)N)NC(=O)[C@H](CC(C)C)NC(=O)[C@@H](NC(=O)[C@H](CCC(N)=O)NC(=O)[C@H](CC(C)C)NC(=O)[C@H](CO)NC(=O)[C@H](CCCNC(=N)N)NC(=O)[C@H](CCC(N)=O)NC(=O)[C@H](CCCNC(=N)N)NC(=O)[C@H](Cc2c[nH]cn2)NC(C)=O)[C@@H](C)O)CCCC=CCCC[C@@](C)(C(=O)N[C@@H](Cc2ccc(Cl)cc2)C(=O)N[C@@H](Cc2ccc3ccccc3c2)C(N)=O)NC(=O)[C@H](CCCNC(=N)N)NC(=O)[C@H](CCC(N)=O)NC1=O
B5: SEQ ID NO: 216 (peptide)
peptide: Ac-CRQRSLQTLR[S5]IQR[S5][Cha][2Nal]-NH2
modifications: staple 11-15
SMILES: CC[C@H](C)[C@@H]1NC(=O)[C@@](C)(NC(=O)[C@H](CCCNC(=N)N)NC(=O)[C@H](CC(C)C)NC(=O)[C@@H](NC(=O)[C@H](CCC(N)=O)NC(=O)[C@H](CC(C)C)NC(=O)[C@H](CO)NC(=O)[C@H](CCCNC(=N)N)NC(=O)[C@H](CCC(N)=O)NC(=O)[C@H](CCCNC(=N)N)NC(=O)[C@H](CS)NC(C)=O)[C@@H](C)O)CCCC=CCCC[C@@](C)(C(=O)N[C@@H](CC2CCCCC2)C(=O)N[C@@H](Cc2ccc3ccccc3c2)C(N)=O)NC(=O)[C@H](CCCNC(=N)N)NC(=O)[C@H](CCC(N)=O)NC1=O
B6: SEQ ID NO: 202 (peptide)
peptide: Ac-HR[NMeQ′]RSL[NMeQ′]TLR[S5]IQR[S5][Phe(4-F)][2Nal]-NH2
modifications: staple 11-15; not fully specified; printed as HR(N-methylQ)RSL(N-methylQ)TLRXIQRX(4-F-Ph)(2-Nal), X/X stapled, (S) α-methyl, N-terminal Ac, C-terminal NH2
B7: SEQ ID NO: 192 (peptide)
peptide: Ac-HRQRSLQTLR[S5]IQR[S5][Tle][2Nal]-NH2
modifications: staple 11-15
SMILES: CC[C@H](C)[C@@H]1NC(=O)[C@@](C)(NC(=O)[C@H](CCCNC(=N)N)NC(=O)[C@H](CC(C)C)NC(=O)[C@@H](NC(=O)[C@H](CCC(N)=O)NC(=O)[C@H](CC(C)C)NC(=O)[C@H](CO)NC(=O)[C@H](CCCNC(=N)N)NC(=O)[C@H](CCC(N)=O)NC(=O)[C@H](CCCNC(=N)N)NC(=O)[C@H](Cc2c[nH]cn2)NC(C)=O)[C@@H](C)O)CCCC=CCCC[C@@](C)(C(=O)N[C@H](C(=O)N[C@@H](Cc2ccc3ccccc3c2)C(N)=O)C(C)(C)C)NC(=O)[C@H](CCCNC(=N)N)NC(=O)[C@H](CCC(N)=O)NC1=O
B8: SEQ ID NO: 203 (peptide)
peptide: Ac-HR[NMeQ′]RSL[NMeQ′]TLR[S5]IQR[S5][Phe(3,4-Cl2)][2Nal]-NH2
modifications: staple 11-15; not fully specified; printed as HR(N-methylQ)RSL(N-methylQ)TLRXIQRX(3,4-diCl-Ph)(2-Nal), X/X stapled, (S) α-methyl, N-terminal Ac, C-terminal NH2
B9: SEQ ID NO: 211 (peptide)
peptide: {Palmitoyl-PEG4″}-HRQRS[Cha][NMeQ′]TLR[S5]IQR[S5][Cha][2Nal]-NH2
modifications: staple 11-15; not fully specified; printed as HRQRS(Cha)(N-methylQ)TLRXaa3IQRXaa6(Cha)(2-Nal)
B10: SEQ ID NO: 200 (peptide)
peptide: Ac-HRQRS[Cha][NMeQ′]TLR[S5]IQR[S5][Phe(4-F)][2Nal]-NH2
modifications: staple 11-15; not fully specified; printed as HRQRS(Cha)(N-methylQ)TLRXaa3IQRXaa6(4-F-Ph)(2-Nal)

Bridges are numbered along the chain shown (N, C = ends). Primed or numbered codes have the meaning given here. Where no end group is shown, it is not given here. [ ]: non-standard residue; d: D form. The star is where a group is joined. S5′ = (S)-2-(4'-pentenyl)alanine, olefinic stapling residue closed by ring-closing metathesis; NMeQ′ = N-methylglutamine (N-alpha-methyl, stereo named both D and L in the filing); Phe(3,4-Cl2) = N[C@@H](Cc1ccc(Cl)c(Cl)c1)C(=O)O; PEG4″ = PEG4 (tetraethylene glycol) spacer; Phe(4-Cl) = N[C@@H](Cc1ccc(Cl)cc1)C(=O)O; Phe(4-F) = N[C@@H](Cc1ccc(F)cc1)C(=O)O; 2Nal = N[C@@H](Cc1ccc2ccccc2c1)C(=O)O; NMeCha = CN[C@@H](CC1CCCCC1)C(=O)O; Palmitoyl = CCCCCCCCCCCCCCCC(=O)*; hArg = N=C(N)NCCCC[C@H](N)C(=O)O; NMeQ = CN[C@@H](CCC(N)=O)C(=O)O; Cha = N[C@@H](CC1CCCCC1)C(=O)O; Cba = N[C@@H](CC1CCC1)C(=O)O; Tle = CC(C)(C)[C@H](N)C(=O)O; S5 = C=CCCC[C@](C)(N)C(=O)O; NMeC = CN[C@@H](CS)C(=O)O

What is called IC50 is the concentration at which inhibition is half-maximal. A higher IC50 goes with weaker potency.

This assay addresses T1, β-catenin. Nature of the assay: ALPHA Screen (BCL9/β-catenin).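 Further: bead proximity readout with the polypeptide linked to donor beads and β-catenin fixed on acceptor beads, their binding bringing the beads close enough to emit signal.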
Description: In this assay, a polypeptide is conjugated to a donor bead and its target protein (i.e., β-catenin) is attached to an acceptor bead. When the two beads are in proximity due to the binding of the polypeptide to the target protein, a signal is generated and the binding affinity of the polypeptide can be quantitatively calculated. The assay may be conducted in the presence or absence of an unconjugated control polypeptide.
In turn, B1 registered an IC50 of 2250 nM. Then {5‑phenylvaleric acid}-L[NMeQ]TLR[S5]IQR[S5][Cba][2Nal]-NH2 (staple 6-10; not fully specified) [SEQ ID NO: 142], with 6070 nM; and Ac-HRQRSLQTLR[S5]IQ[hArg][S5][Cba][2Nal]-NH2 (staple 11-15) [SEQ ID NO: 171], with 340 nM; and LQTLRDIQRML[2Nal]PD [SEQ ID NO: 53], with 27900 nM. For Ac-LQTLR[S5]IQR[S5]A[2Nal]-NH2 (staple 6-10) [SEQ ID NO: 77] the value was 7680 nM; for Ac-LQTLR[S5]AQR[S5]A[2Nal]-NH2 (staple 6-10; not fully specified; printed as LQTLRXAQRXA(2-Nal)) [SEQ ID NO: 23], 30000 nM. For Ac-LQTAR[S5]IQR[S5]L[2Nal]-NH2 (staple 6-10) [SEQ ID NO: 75] the value was 6290 nM; for B2, 7610 nM; for Ac-LQTAR[S5]AQR[S5]L[2Nal]-NH2 (staple 6-10; not fully specified; printed as LQTARXAQRXL(2-Nal)) [SEQ ID NO: 22], 11400 nM.

On to Ac-LQTLR[S5′]IQE[S5′]L[2Nal]-NH2 (staple 6-10) [SEQ ID NO: 99], for which it took 50000 nM to reach half-maximal inhibition (IC50). Then Ac-LQTLE[S5′]IQR[S5′]L[2Nal]-NH2 (staple 6-10) [SEQ ID NO: 98], with 47100 nM. Molecule Ac-LQTLK[S5]IQR[S5]L[2Nal]-NH2 (staple 6-10) [SEQ ID NO: 100] yielded an IC50 of 14400 nM. Ac-LQTLR[S5]AQR[S5]L[2Nal]-NH2 (staple 6-10) [SEQ ID NO: 76] registered an IC50 of 8990 nM. Molecule Ac-HRQRSLQTL[hArg][S5]IQR[S5][Cba][2Nal]-NH2 (staple 11-15) [SEQ ID NO: 170] showed an IC50 of 430 nM.

For Ac-HRQRS[Cha][NMeQ]TLR[S5]IQR[S5][Cha][2Nal]-NH2 (staple 11-15; also: N-MeGln at 7: D or L (both stated)) [SEQ ID NO: 185], the IC50 stood at 223 nM. The molecule B3 gave an IC50 of 384 nM.

B4 returned an IC50 of 63 nM.

For the molecule B5, inhibition was half-maximal at 155 nM (IC50). For B6 the value was 294 nM. For B7, the IC50 was 329 nM. For B8 the value was 312 nM; for Ac-HRQRS[NMeCha][NMeQ]TLR[S5]IQR[S5][Cha][2Nal]-NH2 (staple 11-15; also: N-MeGln at 7: D or L (both stated)) [SEQ ID NO: 186], 232 nM. For Ac-HR[NMeQ]RSLQTLR[S5]IQR[S5][Tle][2Nal]-NH2 (staple 11-15; also: N-methylglutamine 3: D or L (filing names both)) [SEQ ID NO: 194] the value was 398 nM.

In turn, B9 returned an IC50 of 305 nM. On to B10, for which the IC50 worked out at 324 nM.

The record behind these values is patent US20200262867A1 (WNTRX PHARMACEUTICALS, published 2020).
